Assay results reported in patent US20240336672A1.

Experiments:
Settings in all cases: remark: other sources report otherwise
[1] = molecular target: T1, SARS-CoV-2 kappa variant B.1.617.1/3 RBD domain (SARS-CoV-2); experiment: ELISA; parameters: unit not given beside the values
[2] = molecular target: SARS-CoV-2 delta plus variant RBD (SARS-CoV-2); experiment: ELISA; parameters: unit not given beside the values
[3] = molecular target: SARS-CoV-2 RBD (B.1.351) domain (SARS-CoV-2); experiment: ELISA; parameters: unit not given beside the values
[4] = molecular target: SARS-CoV-2 RBD (B.1.1.7) domain (SARS-CoV-2); experiment: ELISA; parameters: unit not given beside the values
[5] = molecular target: T2, SARS-CoV-2 delta variant B.1.617.2/3 RBD domain (SARS-CoV-2); experiment: ELISA; parameters: unit not given beside the values
[6] = molecular target: SARS-CoV-2 RBD (P.1) domain (SARS-CoV-2); experiment: ELISA; parameters: unit not given beside the values
[7] = molecular target: T1, SARS-CoV-2 kappa variant B.1.617.1/3 …; experiment: RBD/ACE2 blocking ELISA
[8] = molecular target: SARS-CoV-2 delta plus variant RBD (SARS-CoV-2); experiment: RBD/ACE2 blocking ELISA
[9] = molecular target: SARS-CoV-2 RBD (B.1.351) domain (SARS-CoV-2); experiment: RBD/ACE2 blocking ELISA
[10] = molecular target: SARS-CoV-2 RBD (B.1.1.7) domain (SARS-CoV-2); experiment: RBD/ACE2 blocking ELISA
[11] = molecular target: T2, SARS-CoV-2 delta variant B.1.617.2/3 …; experiment: RBD/ACE2 blocking ELISA
[12] = molecular target: SARS-CoV-2 RBD (P.1) domain (SARS-CoV-2); experiment: RBD/ACE2 blocking ELISA
[13] = molecular target: T1, SARS-CoV-2 kappa variant B.1.617.1/3 …; experiment: ELISA
[14] = molecular target: SARS-CoV-2 RBD (B.1.1.7) domain (SARS-CoV-2); experiment: ELISA
[15] = molecular target: T2, SARS-CoV-2 delta variant B.1.617.2/3 …; experiment: ELISA
[16] = molecular target: SARS-CoV-2 RBD (P.1) domain (SARS-CoV-2); experiment: ELISA

Binder	AUC [1]	AUC [2]	AUC [3]	AUC [4]	AUC [5]	AUC [6]	% binding inhibition [7] [%]	% binding inhibition [8] [%]	% binding inhibition [9] [%]	% binding inhibition [10] [%]	% binding inhibition [11] [%]	% binding inhibition [12] [%]	OD405nm [13]	OD405nm [14]	OD405nm [15]	OD405nm [16]
CT-P59 (parental IgG1 version) (antibody, V domains shown) VH: QITLKESGPTLVKPTQTLTLTCSFSGFSLSTSGVGVGWIRQPPGKALEWLALIDWDDNKYHTTSLKTRLTISKDTSKNQVVLTMTNMDPVDTATYYCARIPGFLRYRNRYYYYGMDVWGQGTTVTVSS VL: ELVLTQPPSVSAAPGQKVTISCSGSSSNIGNNYVSWYQQLPGTAPKLLIYDNNKRPSGIPDRFSGSKSGTSATLGITGLQTGDEADYYCGTWDSSLSAGVFGGGTELTVL	3	3	3	3	3	4	94	91	49	86	91	19	–	–	–	–
REG (antibody) heavy chain variable region (VH): QITLKESGPTLVKPTQTLTLTCSFSGFSLSTSGVGVGWIRQPPGKALEWLALIDWDDNKYHTTSLKTRLTISKDTSKNQVVLTMTNMDPVDTATYYCARIPGFLRYRNRYYYYGMDVWGQGTTVTVSS light chain variable region (VL): ELVLTQPPSVSAAPGQKVTISCSGSSSNIGNNYVSWYQQLPGTAPKLLIYDNNKRPSGIPDRFSGSKSGTSATLGITGLQTGDEADYYCGTWDSSLSAGVFGGGTELTVL	–	–	–	–	–	–	–	–	–	–	–	–	3.5	3.2	3.4	3.6
